Data on three molecules can be found in paper PMC3542428, “Functional Insights from the Crystal Structure of the N-Terminal Domain of the Prototypical Toll Receptor” (Structure(London, England:1993), 2013).

Experiment [1] concerns the target Toll (Drosophila melanogaster) (UniProt P08953). To be noted: cited from earlier work.
Experiment [2] addresses TollN6-VLR (hybrid of Toll residues 28-228 and variable lymphocyte receptor B.61 residues 133-201) (Drosophila melanogaster | hagfish) (UniProt P08953). Nature of the experiment: dynamic light scattering; 100 mM NaCl, 50 mM Tris-HCl pH 7.0, about 200 μg/ml; Z-average diameter 12.7 nm, polydispersion index about 0.1.
The target in experiment [3] is single and double mutations of Cys 34, Cys 43 and Cys 45 in the Toll-TLR4 chimera.
In experiment [4] the target is T1, TollN13-VLR (Toll N-terminal region up to LRR13 fused to VLR B.61 residues 133-201) (Drosophila melanogaster | hagfish, UniProt P08953 28-397; Q4G1L2 133-201).
T1 construct: Toll, Drosophila melanogaster, UniProt P08953, residues 28-397 (first 13 LRRs); cloned as residues 1-397 with its own signal peptide; the results say 'up to Leu 398 in LRR13'; variable lymphocyte receptor (VLR) B.61 of hagfish, residues Asn 133-Thr 201 (LRRCT cap); C-terminal limit of the Toll part is printed as 397 (methods, discussion) and as Leu 398 (results); also called larger Toll …
T1 chain (looked up): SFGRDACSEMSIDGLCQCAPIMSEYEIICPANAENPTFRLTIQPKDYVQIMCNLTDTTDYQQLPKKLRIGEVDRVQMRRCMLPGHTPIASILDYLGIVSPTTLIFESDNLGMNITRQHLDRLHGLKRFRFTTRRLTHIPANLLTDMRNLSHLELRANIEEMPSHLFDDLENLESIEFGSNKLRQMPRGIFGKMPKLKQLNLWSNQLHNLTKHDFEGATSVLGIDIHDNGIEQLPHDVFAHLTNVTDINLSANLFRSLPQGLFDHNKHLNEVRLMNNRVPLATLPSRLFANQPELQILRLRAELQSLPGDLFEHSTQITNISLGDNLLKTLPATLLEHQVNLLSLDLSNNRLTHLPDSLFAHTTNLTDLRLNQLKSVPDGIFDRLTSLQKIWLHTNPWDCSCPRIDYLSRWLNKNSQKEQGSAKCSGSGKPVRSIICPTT
Nature of the experiment: SEC; gel filtration of the Toll-VLR constructs alone and mixed with Spz C-106 (TollN6-VLR and C-106 in equimolar concentrations). To be noted: both partners purified. A general note: In gel filtration, larger molecules generally elute earlier.

Experiment [5] addresses T2, full-length Toll ECD (extracellular domain of Drosophila melanogaster Toll) (Drosophila melanogaster, UniProt P08953 28-807).
T2 construct: Toll, Drosophila melanogaster, UniProt P08953, full-length extracellular domain; Also used as the target of the functional row on endogenous Toll of S2 cells (no molecule of its own was made for the whole receptor); also called full-length ECD; full-length ectodomain
T2 sequence (looked up): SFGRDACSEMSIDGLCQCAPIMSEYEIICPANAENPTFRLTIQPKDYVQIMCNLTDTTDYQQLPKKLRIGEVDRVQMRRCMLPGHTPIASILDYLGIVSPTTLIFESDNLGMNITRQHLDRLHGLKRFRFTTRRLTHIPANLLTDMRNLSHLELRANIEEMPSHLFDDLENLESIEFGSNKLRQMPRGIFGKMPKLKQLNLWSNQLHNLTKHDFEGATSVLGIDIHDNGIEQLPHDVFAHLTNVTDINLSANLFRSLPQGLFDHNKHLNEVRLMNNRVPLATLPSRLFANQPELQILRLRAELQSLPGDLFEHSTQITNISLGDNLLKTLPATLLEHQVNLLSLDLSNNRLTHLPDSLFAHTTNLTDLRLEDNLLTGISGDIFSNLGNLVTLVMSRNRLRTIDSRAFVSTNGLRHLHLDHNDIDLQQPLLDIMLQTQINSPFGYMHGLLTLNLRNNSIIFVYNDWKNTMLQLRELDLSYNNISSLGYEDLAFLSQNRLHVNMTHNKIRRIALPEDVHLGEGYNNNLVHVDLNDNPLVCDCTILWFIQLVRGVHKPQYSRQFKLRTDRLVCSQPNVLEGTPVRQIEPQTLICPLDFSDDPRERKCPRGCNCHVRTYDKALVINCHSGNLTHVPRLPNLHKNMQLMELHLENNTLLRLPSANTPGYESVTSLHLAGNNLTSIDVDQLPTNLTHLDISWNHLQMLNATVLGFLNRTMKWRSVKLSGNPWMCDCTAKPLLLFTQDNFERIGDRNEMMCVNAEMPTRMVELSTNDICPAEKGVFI
The experiment is described as follows: SEC; data not shown; same preparation of C-106 with full-length Toll ECD, complexes elute as 280 kDa species. To be noted: both partners purified.

A word on the Kd: it is the free concentration of one partner at which half of the binding sites on the other are occupied at equilibrium, for simple one-to-one binding. Consider Toll (from UniProt P08953), for which the dissociation constant Kd in experiment [1] was 2000 nM.
The stoichiometry N is a count of units in the complex or per binding partner. In the case of “TollN6-VLR (hybrid of Toll residues 28-228 and variable lymphocyte receptor B.61 residues 133-201) (from UniProt P08953 28-228; Q4G1L2 133-201) (domain or fragment)”, the stoichiometry N in experiment [2] turned out to be 4.

B1: Spätzle C-106 (C-terminal active fragment of 106 amino acids of processed Spätzle) (ligand, Drosophila melanogaster, UniProt P48607 221-326, looked up)
chain: VGGSDERFLCRSIRKLVYPKKGLRADDTWQLIVNNDEYKQAIQIEECEGADQPCDFAANFPQSYNPICKQHYTQQTLASIKSDGELDVVQNSFKIPSCCKCALKTG
notes: Spätzle (Spz), Drosophila melanogaster; also called cleaved Spz; source: baculovirus expression system, His-tagged Spätzle, purified
With B1, the NF-κB luciferase reporter in HEK293ET cells transfected with the Toll-TLR4 chimera, 24 hr after Spz stimulation at 10 nM; decrease of the signal against the wild-type chimera in experiment [3] was found to be 10 % decrease. Moreover, the “stoichiometry N” value in experiment [4] was 1 ratio (1:1 as printed); in experiment [5], 1 ratio (2:2 as printed).
